Consider 4 molecules from article PMC11407943, “Cdc14 phosphatases use an intramolecular pseudosubstrate motif to stimulate and regulate catalysis” (The Journal of Biological Chemistry, 2024).

Residue numbers refer to the chain shown, from its start. Numbers in names are those of the source.

For series [1] the following is noted: cited from earlier work.
Text: To experimentally characterize the SLiCE motif mechanism, we expressed and purified several recombinant ScCdc14 enzyme variants (Figs. 2A and S2A).
A short description of series [2]: Catalytic efficiency (kcat/KM) on pooled phosphopeptides by LC-MS. Particulars: 375 nM each pooled phosphopeptide, 30 °C, 10 to 40 min; for catalytic efficiency (kcat/KM) for high affinity substrates: enzyme 0.1–1 μM, at least four independent measurements.
Experimental: Cdc14 catalytic efficiencies toward a pooled set of phosphopeptide variants were measured by LC-MS exactly as described ([49]). […] Reactions were initiated by addition of Cdc14 enzymes (0.1–1 μM final concentration) in 200 μl Cdc14 reaction buffer and incubated at 30 °C for 10 to 40 min 60 μl aliquots were removed and mixed with an equal volume 5% formic acid at desired times to terminate the reactions. Peptides were desalted on C18 spin columns (Thermo Fisher Scientific) and dried by vacuum centrifugation prior to LC-MS analysis on an LTQ Orbitrap Velos mass spectrometer. Extracted ion chromatograms for each substrate and product peptide were generated and integrated using Skyline software ([65]) (https://skyline.ms/project/home/begin.view) and catalytic efficiency calculations from the data were performed as described ([28], [47]).
Series [3] in a line: Steady-state kinetics of Cdc14 enzyme variants toward DiFMUP.
Experimental: B, initial velocities as a function of increasing DiFMUP concentration were measured under steady-state conditions for the indicated ScCdc14 variants. […] Data are average values from at least three independent measurements. Error bars are SDs. Lines are best fits for the Michaelis–Menten equation. C, to better visualize differences in KM, all Vmax values from data in panel A were normalized to 1. D, top: the general PTP-catalyzed reaction scheme with associated rate constants ([50]), where E is enzyme, S is phosphorylated substrate, P is dephosphorylated product, Pi is inorganic phosphate, and E-Pi is the covalent phosphoenzyme intermediate. For simplicity, the reverse catalytic steps are omitted and considered negligible under our experimental conditions. Bottom: definitions of kcat and KM for enzymes following the two step PTP reaction mechanism ([47]). E, a representative presteady-state reaction progress graph for reaction of the indicated ScCdc14 enzyme variants with 200 μM DiFMUP, measured in a stopped flow spectrofluorometer. Data were fit with Equation 1 (see Experimental procedures) to generate rates of the burst phase (kburst) of the reaction. F, kburst was plotted as a function of substrate concentration from presteady-state kinetic measurements with the substrate DiFMUP and the indicated ScCdc14 enzyme variants. Data are averages of three independent measurements and error bars are SDs. Data were fit in GraphPad Prism with Equation 2 (Experimental procedures).
D–E, steady-state kinetic analyses with hCdc14A enzyme variants toward DiFMUP as in Figure 2, B and C. […] In E, Vmax values from data in panel D were normalized to 1 to show differences in KM.
Data from velocity versus substrate concentration plots were fit with the Michaelis–Menten equation in GraphPad Prism (https://www.graphpad.com/) to determine steady-state kinetic parameters kcat and KM. For trans peptide stimulation assays, DiFMUP was used at a single concentration well above the measured KM for each enzyme.
Series [4] in a line: Presteady-state (stopped-flow) kinetics of Cdc14 enzyme variants with DiFMUP. Particulars: 23 °C, 200 μM DiFMUP in representative ScCdc14 progress curve, compared to ScCdc14^1-449. It counts as biochemical. The procedure:
SLiCE motif is boxed in gray.
Presteady-state kinetic analysis was performed as described previously ([34]). Enzymes were exchanged into Cdc14 reaction buffer using a desalting column and flash-frozen in liquid nitrogen. Prior to use, aliquots were thawed and clarified at 16,000g for 5 min to remove any insoluble material and protein concentration was subsequently determined by Bradford assay. Presteady-state measurements were made by mixing enzyme and varying DiFMUP concentrations at 23 °C on an SFM-3000 stopped-flow instrument equipped with a MOS-200/M spectrophotometer (BioLogic) as described ([64]). The excitation wavelength was 390-nm and emission was selected using a 409-nm long pass filter (Semrock FF02-409/LP-25). A standard curve was generated by measuring the fluorescence of defined concentrations of the product DiFMU reconstituted in Cdc14 reaction buffer under identical conditions. Raw data were fit with Equation 1 in Prism:(1) Y=At+B(1−e^−bt)+C

[5] abbreviates: DiFMUP, pH 7.5, 30 °C, S429 phosphosite mutant series, printed "(Fig. 6)" for ScCdc141-449.

B1: ScCdc14^1-449: truncation of S. cerevisiae Cdc14 that retains the SLiCE motif (protein)
chain: MRRSVYLDNTIEFLRGRVYLGAYDYTPEDTDELVFFTVEDAIFYNSFHLDFGPMNIGHLYRFAVIFHEILNDPENANKAVVFYSSASTRQRANAACMLCCYMILVQAWTPHQVLQPLAQVDPPFMPFRDAGYSNADFEITIQDVVYGVWRAKEKGLIDLHSFNLESYEKYEHVEFGDFNVLTPDFIAFASPQEDHPKGYLATKSSHLNQPFKSVLNFFANNNVQLVVRLNSHLYNKKHFEDIGIQHLDLIFEDGTCPDLSIVKNFVGAAETIIKRGGKIAVHCKAGLGRTGCLIGAHLIYTYGFTANECIGFLRFIRPGMVVGPQQHWLYLHQNDFREWKYTTRISLKPSEAIGGLYPLISLEEYRLQKKKLKDDKRVAQNNIEGELRDLTMTPPSNGHGALSARNSSQPSTANNGSNSFKSSAVPQTSPGQPRKGQNGSNTIEDINNN
modifications: left off: 6xHis, N-terminal, state not stated
One may read the kcat as the number of substrate molecules converted per active site and unit of time at saturation. On to B1, for which the “activity compared with full-length ScCdc14” value in series [1] is on record as “indistinguishable from full-length ScCdc14”. Moreover, in series [2], the “catalytic efficiency (kcat/KM) for high affinity substrates” value is recorded as “indistinguishable”. Besides, in series [3] (setting [5]), the kcat is 1.71 ± 0.24 s⁻¹.

B2: ScCdc14^P433A/K435A: SLiCE motif point mutant generated in ScCdc14^1-449 (protein)
chain: B1 chain with P433A, K435A
modifications: left off: 6xHis, N-terminal, state not stated
Consider B2, for which the “postburst linear rate (primarily reflecting k3)” value in series [4] is reported as “greatly reduced”. Also, the “catalytic efficiency (kcat/KM) for low affinity substrates” value in series [2] (compared to ScCdc14^1-449) is “modest, but consistent and statistically significant, increase in catalytic efficiency”. Moreover, the “catalytic efficiency (kcat/KM) for high affinity substrates” value in series [2] is listed as “indistinguishable”. Moreover, the kcat in series [3] (pH 7.5) amounted to 0.27 ± 0.03 s⁻¹.

B3: ScCdc14^1-374: catalytic domain alone lacking the SLiCE motif (protein)
chain: MRRSVYLDNTIEFLRGRVYLGAYDYTPEDTDELVFFTVEDAIFYNSFHLDFGPMNIGHLYRFAVIFHEILNDPENANKAVVFYSSASTRQRANAACMLCCYMILVQAWTPHQVLQPLAQVDPPFMPFRDAGYSNADFEITIQDVVYGVWRAKEKGLIDLHSFNLESYEKYEHVEFGDFNVLTPDFIAFASPQEDHPKGYLATKSSHLNQPFKSVLNFFANNNVQLVVRLNSHLYNKKHFEDIGIQHLDLIFEDGTCPDLSIVKNFVGAAETIIKRGGKIAVHCKAGLGRTGCLIGAHLIYTYGFTANECIGFLRFIRPGMVVGPQQHWLYLHQNDFREWKYTTRISLKPSEAIGGLYPLISLEEYRLQKKKLKD
modifications: left off: 6xHis, N-terminal, state not stated
In the case of B3, the “decrease in kcat compared to ScCdc14^1-449” value in series [3] (DiFMUP, steady state) is recorded as 16 fold.

B4: ScCdc14^S429E (protein, UniProt Q00684 1-551, looked up, variant S429E)
Tyrosine-protein phosphatase …: MRRSVYLDNTIEFLRGRVYLGAYDYTPEDTDELVFFTVEDAIFYNSFHLDFGPMNIGHLYRFAVIFHEILNDPENANKAVVFYSSASTRQRANAACMLCCYMILVQAWTPHQVLQPLAQVDPPFMPFRDAGYSNADFEITIQDVVYGVWRAKEKGLIDLHSFNLESYEKYEHVEFGDFNVLTPDFIAFASPQEDHPKGYLATKSSHLNQPFKSVLNFFANNNVQLVVRLNSHLYNKKHFEDIGIQHLDLIFEDGTCPDLSIVKNFVGAAETIIKRGGKIAVHCKAGLGRTGCLIGAHLIYTYGFTANECIGFLRFIRPGMVVGPQQHWLYLHQNDFREWKYTTRISLKPSEAIGGLYPLISLEEYRLQKKKLKDDKRVAQNNIEGELRDLTMTPPSNGHGALSARNSSQPSTANNGSNSFKSSAVPQTEPGQPRKGQNGSNTIEDINNNRNPTSHANRKVVIESNNSDDESMQDTNGTSNHYPKVSRKKNDISSASSSRMEDNEPSATNINNAADDTILRQLLPKNRRVTSGRRTTSAAGGIRKISGSIKK
For B4, the kcat in series [3] (setting [5]) worked out at 0.15 ± 0.01 s⁻¹.
